This note sets out measurements from ChEMBL document CHEMBL4627406, “Amino Acids Bearing Aromatic or Heteroaromatic Substituents as a New Class of Ligands for the Lysosomal Sialic Acid Transporter Sialin” (J Med Chem, 2020).

Compound in data set [1]: CC(C)C[C@H](NC(=O)OCC1c2ccccc2-c2ccccc21)C(=O)O
In words: Non-competitive inhibition of human recombinant-Sialin expressed in HEK293 cells assessed as reduction in [3H]Neu5Ac uptake by measuring Km level at 10 uM incubated for 15 mins by liquid scintillation counting method (reference value: 1.6 +/- 0.3 mM). It counts as cell-based.

Compound in data set [2]: O=C(N[C@@H](CSCc1cc(=O)oc2cc(O)ccc12)C(=O)O)OCC1c2ccccc2-c2ccccc21
In words: Non-competitive inhibition of human recombinant-Sialin expressed in HEK293 cells assessed as reduction in [3H]Neu5Ac uptake by measuring Km level at 3 uM incubated for 15 mins by liquid scintillation counting method (reference value: 1.4 +/- 0.5 mM).

B1: Sialin (Homo sapiens), Q9NRA2 (protein)
chain: MRSPVRDLARNDGEESTDRTPLLPGAPRAEAAPVCCSARYNLAILAFFGFFIVYALRVNLSVALVDMVDSNTTLEDNRTSKACPEHSAPIKVHHNQTGKKYQWDAETQGWILGSFFYGYIITQIPGGYVASKIGGKMLLGFGILGTAVLTLFTPIAADLGVGPLIVLRALEGLGEGVTFPAMHAMWSSWAPPLERSKLLSISYAGAQLGTVISLPLSGIICYYMNWTYVFYFFGTIGIFWFLLWIWLVSDTPQKHKRISHYEKEYILSSLRNQLSSQKSVPWVPILKSLPLWAIVVAHFSYNWTFYTLLTLLPTYMKEILRFNVQENGFLSSLPYLGSWLCMILSGQAADNLRAKWNFSTLCVRRIFSLIGMIGPAVFLVAAGFIGCDYSLAVAFLTISTTLGGFCSSGFSINHLDIAPSYAGILLGITNTFATIPGMVGPVIAKSLTPDNTVGEWQTVFYIAAAINVFGAIFFTLFAKGEVQNWALNDHHGHRH
As to B1, the Km in data set [1] was 1300 µM; in data set [2], 1700 µM.

In general, Km refers to the concentration of substrate that gives half-maximal velocity.
